Assay results as given in patent publication US20240150465A1 (Chugai, published 2024).

How the values were obtained:
[1] = molecular target: T1, human DLL3 (delta-like protein 3 isoform 1 precursor) expressed on Ba/F3 cells (human, UniProt Q9NYJ7 27-618); experiment: cell ELISA, B-cell culture supernatants on immobilized hDLL3/BaF_H3 cells
T1 construct: Full-length cDNA stably transfected into mouse Ba/F3 cells; also called human DLL3 expressing Ba/F3
T1 sequence: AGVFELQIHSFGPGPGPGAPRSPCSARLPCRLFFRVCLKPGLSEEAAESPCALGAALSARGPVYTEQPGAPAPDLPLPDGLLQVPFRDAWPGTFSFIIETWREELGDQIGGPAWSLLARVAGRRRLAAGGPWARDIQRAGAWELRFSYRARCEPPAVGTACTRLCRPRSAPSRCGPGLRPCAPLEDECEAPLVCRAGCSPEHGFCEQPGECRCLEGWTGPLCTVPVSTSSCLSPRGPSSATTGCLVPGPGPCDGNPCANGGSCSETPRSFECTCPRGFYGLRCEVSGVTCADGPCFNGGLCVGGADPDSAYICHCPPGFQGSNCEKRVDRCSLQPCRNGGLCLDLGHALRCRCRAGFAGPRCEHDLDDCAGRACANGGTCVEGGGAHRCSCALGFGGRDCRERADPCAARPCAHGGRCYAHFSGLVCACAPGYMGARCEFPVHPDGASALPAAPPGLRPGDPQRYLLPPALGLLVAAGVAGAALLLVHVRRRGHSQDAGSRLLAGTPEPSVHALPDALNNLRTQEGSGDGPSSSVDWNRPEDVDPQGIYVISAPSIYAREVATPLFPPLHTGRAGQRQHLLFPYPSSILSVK
Description: ELISA screening was conducted to test specificity of antibodies in B-cell culture supernatants. Human DLL3 expressing Ba/F3 (hDLL3/BaF_H3 established in Example 2, 2.5×10⁴ cells) were immobilized onto a Nunc MaxiSorp 384-well plate (Sigma-Aldrich) which was pre-coated with BSA (Sigma-Aldrich) and SUNBRIGHT (registered trademark) OE-080CS as Biocompatible Anchor for cell Membrane (YUKA SANGYO). Immobilized cells were incubated with 20 microliters (micro L) of B-cell culture supernatants for 1 hour. The supernatants were aspirated and the cells were washed with HEPES buffer (0.02 M HEPES, 5 mM KCl, 4 mM NaHCO₃, 138 mM NaCl, 2 mM CaCl₂, 5 mM Glucose, 0.4 mM KH₂PO₄, 0.34 mM Na₂HPO₄° and 0.1% BSA). After washing, goat anti-rabbit IgG polyclonal antibody HRP conjugate (BETHYL, A120-111P) was added. The cells were further incubated on ice for 1 hour and washed. Then, ABTS Microwell Peroxidase Substrate (Kirkegaard & Perry Laboratories) was added and OD405 was analyzed with […]ax 384 (Molecular Devices).

del0 = molecular target: T2, del0; experiment: ELISA with the human DLL3 ECD fragment proteins del0 to del6, OD405
T2 construct: also called human DLL3 ECD with Flag-tag on C-terminus
T2 chain: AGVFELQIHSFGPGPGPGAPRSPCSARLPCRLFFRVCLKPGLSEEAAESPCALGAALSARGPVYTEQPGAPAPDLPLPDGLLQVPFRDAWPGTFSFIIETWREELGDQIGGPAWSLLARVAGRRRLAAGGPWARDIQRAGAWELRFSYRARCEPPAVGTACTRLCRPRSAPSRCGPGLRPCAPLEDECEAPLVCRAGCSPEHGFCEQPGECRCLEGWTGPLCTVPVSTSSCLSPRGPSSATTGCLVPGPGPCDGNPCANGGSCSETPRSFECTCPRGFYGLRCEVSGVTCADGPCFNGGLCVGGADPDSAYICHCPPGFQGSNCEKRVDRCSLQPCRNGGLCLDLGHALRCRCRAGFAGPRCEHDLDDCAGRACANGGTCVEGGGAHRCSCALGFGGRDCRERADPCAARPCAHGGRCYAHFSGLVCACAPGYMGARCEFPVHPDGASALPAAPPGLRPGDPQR
Description: (§1) Nunc MaxiSorp 384-well plates (Sigma-Aldrich) were coated with each of the human DLL3 ECD fragment proteins del0 to del6, and blocked with 20% Blocking One (NACALAI TESQUE). Blocking buffer was removed and recombinant anti-DLL3 antibodies were incubated with the immobilized proteins for 1 hour at room temperature and washed with HEPES buffer (0.05% Tween20, HEPES). Monoclonal ANTI-FLAG M2-Peroxidase, Clone M2 (Sigma-Aldrich) was then added and incubated for 1 hour at room temperature and washed. Then, ABTS Microwell Peroxidase Substrate (Kirkegaard & Perry Laboratories) was added and OD405 was analyzed with […]ax 384 (Molecular Devices).

del2 = molecular target: T3, del2; experiment: as above
T3 construct: also called truncated human DLL3 ECD variant with Flag-tag on C-terminus
T3 chain: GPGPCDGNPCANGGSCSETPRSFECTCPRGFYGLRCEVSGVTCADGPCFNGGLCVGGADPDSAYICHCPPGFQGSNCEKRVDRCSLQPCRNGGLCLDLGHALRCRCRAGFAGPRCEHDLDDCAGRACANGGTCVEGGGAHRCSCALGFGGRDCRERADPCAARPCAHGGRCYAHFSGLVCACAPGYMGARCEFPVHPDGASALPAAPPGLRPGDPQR
Description: as §1

del3 = molecular target: T4, del3; experiment: as above
T4 construct: also called truncated human DLL3 ECD variant with Flag-tag on C-terminus
T4 chain: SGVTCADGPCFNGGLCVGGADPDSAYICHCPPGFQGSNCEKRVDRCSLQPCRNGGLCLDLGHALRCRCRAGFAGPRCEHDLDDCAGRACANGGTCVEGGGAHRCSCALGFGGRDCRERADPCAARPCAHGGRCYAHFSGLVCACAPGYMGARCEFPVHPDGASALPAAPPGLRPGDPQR
Description: as §1

del4 = molecular target: T5, del4; experiment: as above
T5 construct: also called truncated human DLL3 ECD variant with Flag-tag on C-terminus
T5 chain: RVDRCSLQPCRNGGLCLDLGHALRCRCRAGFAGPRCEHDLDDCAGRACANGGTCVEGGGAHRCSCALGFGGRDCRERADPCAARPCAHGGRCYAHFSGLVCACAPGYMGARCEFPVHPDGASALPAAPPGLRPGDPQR
Description: as §1

del5 = molecular target: T6, del5; experiment: as above
T6 construct: also called truncated human DLL3 ECD variant with Flag-tag on C-terminus
T6 chain: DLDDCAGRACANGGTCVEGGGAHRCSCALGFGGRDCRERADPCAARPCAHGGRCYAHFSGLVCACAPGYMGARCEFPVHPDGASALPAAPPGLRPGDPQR
Description: as §1

del6 = molecular target: T7, del6; experiment: as above
T7 construct: also called truncated human DLL3 ECD variant with Flag-tag on C-terminus
T7 chain: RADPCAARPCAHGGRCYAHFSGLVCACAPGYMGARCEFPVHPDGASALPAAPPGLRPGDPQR
Description: as §1

B1: DLA0379 (antibody, human IgG1, V domains shown)
VH: QSLEESGGRLVTPGTPLTLTCTASGFSLNTYHMIWVRQAPGKGLEWIGIVDSGGSTYYASWAKGRFTISRTSTTVDLKATSLTTEDTATYFCARGGSWDGFNIWGPGTLVTVSS
VL: DVVMTQTPSSVSAAVGGTVTINCQSSQSVYNSDFLAWYQQKPGQPPKLLIYAASTLASGVPSRFKGSGSGTQFTLTISDLECDDAATYYCQGTYEDVGWFNDFGGGTEVVVK
notes: Rabbit B-cell clone, screened as B-cell culture supernatant
[1]
  binding result: binds
del0
  binding result: binds
del2
  binding result: no binding
del3
  binding result: no binding
del4
  binding result: no binding
del5
  binding result: no binding
del6
  binding result: no binding
